Reference: doi:10.1101/2022.10.05.511023 (bioRxiv, 2022)

Assays:
[1] = biological target: T1, non-farnesylated GBP1 (guanylate binding protein 1) (human), P32455; assay: dynamic light scattering; conditions: remark: other sources report otherwise
T1 chain: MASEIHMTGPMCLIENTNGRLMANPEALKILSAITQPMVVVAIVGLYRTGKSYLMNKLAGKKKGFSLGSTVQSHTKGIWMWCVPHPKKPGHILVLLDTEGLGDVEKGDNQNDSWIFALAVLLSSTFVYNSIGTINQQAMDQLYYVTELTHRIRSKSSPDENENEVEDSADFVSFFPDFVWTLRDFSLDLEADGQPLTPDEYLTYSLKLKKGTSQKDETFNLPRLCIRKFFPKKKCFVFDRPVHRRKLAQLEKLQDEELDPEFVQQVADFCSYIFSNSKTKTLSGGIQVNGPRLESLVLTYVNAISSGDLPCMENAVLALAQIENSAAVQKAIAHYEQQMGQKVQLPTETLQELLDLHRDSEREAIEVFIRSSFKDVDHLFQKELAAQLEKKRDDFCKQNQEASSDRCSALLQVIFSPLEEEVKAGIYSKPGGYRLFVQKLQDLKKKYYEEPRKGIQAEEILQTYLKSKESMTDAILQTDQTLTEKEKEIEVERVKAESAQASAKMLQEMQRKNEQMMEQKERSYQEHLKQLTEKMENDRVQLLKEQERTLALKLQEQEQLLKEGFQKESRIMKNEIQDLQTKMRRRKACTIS

[2] = biological target: T2, non-geranylgeranylated GBP5 (guanylate binding protein 5) (human), Q96PP8; assay: dynamic light scattering; conditions: remark: other sources report otherwise
T2 chain: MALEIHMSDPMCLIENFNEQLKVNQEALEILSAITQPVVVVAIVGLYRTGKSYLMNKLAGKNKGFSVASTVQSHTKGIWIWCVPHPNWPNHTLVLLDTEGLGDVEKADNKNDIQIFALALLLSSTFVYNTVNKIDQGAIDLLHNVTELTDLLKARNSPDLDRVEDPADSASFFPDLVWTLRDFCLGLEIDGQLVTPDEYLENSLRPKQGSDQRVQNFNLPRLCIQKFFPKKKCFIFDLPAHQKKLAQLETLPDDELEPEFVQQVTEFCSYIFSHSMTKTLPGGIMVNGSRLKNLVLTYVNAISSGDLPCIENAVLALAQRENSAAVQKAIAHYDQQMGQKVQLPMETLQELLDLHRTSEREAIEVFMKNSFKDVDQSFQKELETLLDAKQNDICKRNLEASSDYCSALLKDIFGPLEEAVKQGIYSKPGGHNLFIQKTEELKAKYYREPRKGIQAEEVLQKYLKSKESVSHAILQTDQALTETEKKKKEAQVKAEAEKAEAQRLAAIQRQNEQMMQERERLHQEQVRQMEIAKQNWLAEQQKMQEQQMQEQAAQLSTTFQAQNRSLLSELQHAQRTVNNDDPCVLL

[3] = biological target: T3, farnesylated GBP1 (guanylate binding protein 1) (human, UniProt P32455 1-592, farnesylated in vitro (C-terminal farnesyl moiety)); assay: absorbance-based light scattering
T3 sequence: T1 chain

[4] = biological target: T4, geranylgeranylated GBP5 (guanylate binding protein 5) (human), Q96PP8; assay: dynamic light scattering; conditions: remark: other sources report otherwise
T4 chain: T2 chain

dynamic light scattering = biological target: the molecule itself; assay: dynamic light scattering

B1: non-farnesylated GBP1 (guanylate binding protein 1), P32455 1-592 (natural protein)
chain: T1 chain
B1 showed a stoichiometry N [1] of 2.

B2: non-geranylgeranylated GBP5 (guanylate binding protein 5), Q96PP8 1-586 (natural protein)
chain: T2 chain
B2 gave a stoichiometry N [2] of 2.

B3: geranylgeranylated GBP5 (guanylate binding protein 5) (natural protein, human, UniProt Q96PP8 1-586, looked up)
chain: T2 chain
modifications: geranylgeranylated in vitro (C-terminal geranylgeranyl moiety)
B3: binds [3].

B4: geranylgeranylated GBP5 (guanylate binding protein 5), Q96PP8 1-586 (natural protein)
chain: T2 chain
modifications: here or on the partner: geranylgeranylated in vitro (C-terminal geranylgeranyl moiety); geranylgeranylated in vitro (C-terminal geranylgeranyl moiety)
Binder B4 has a stoichiometry N [4] of 2.

B5: geranylgeranylated GBP2 (guanylate binding protein 2) (natural protein, human, UniProt P32456 1-591, looked up)
chain: MAPEINLPGPMSLIDNTKGQLVVNPEALKILSAITQPVVVVAIVGLYRTGKSYLMNKLAGKKNGFSLGSTVKSHTKGIWMWCVPHPKKPEHTLVLLDTEGLGDIEKGDNENDSWIFALAILLSSTFVYNSMGTINQQAMDQLHYVTELTDRIKANSSPGNNSVDDSADFVSFFPAFVWTLRDFTLELEVDGEPITADDYLELSLKLRKGTDKKSKSFNDPRLCIRKFFPKRKCFVFDWPAPKKYLAHLEQLKEEELNPDFIEQVAEFCSYILSHSNVKTLSGGIPVNGPRLESLVLTYVNAISSGDLPCMENAVLALAQIENSAAVEKAIAHYEQQMGQKVQLPTETLQELLDLHRDSEREAIEVFMKNSFKDVDQMFQRKLGAQLEARRDDFCKQNSKASSDCCMALLQDIFGPLEEDVKQGTFSKPGGYRLFTQKLQELKNKYYQVPRKGIQAKEVLKKYLESKEDVADALLQTDQSLSEKEKAIEVERIKAESAEAAKKMLEEIQKKNEEMMEQKEKSYQEHVKQLTEKMERDRAQLMAEQEKTLALKLQEQERLLKEGFENESKRLQKDIWDIQMRSKSLEPICNIL
modifications: geranylgeranylated in vitro (C-terminal geranylgeranyl moiety)
B5: binds (dynamic light scattering); binds [3].

B6: non-geranylgeranylated GBP2 (guanylate binding protein 2) (natural protein, human, UniProt P32456 1-591, looked up)
chain: B5 chain
In the case of B6, the “stoichiometry N” value (dynamic light scattering) is reported as 2.
